Test results published in US20110039773A1.

What was measured:
Assay in all cases: cell-based or functional assay
BMP-7 Y78H (human) = BMP-7 Y78H (human) (UniProt P18075)
BMP-6 (human) = BMP-6 (human) (UniProt P22004)
[1] = biological target: BMP-7 R48Q/E60K/Y65N (human) (UniProt P18075)
BMP-7 (human) = BMP-7 (human) (UniProt P18075)
[2] = biological target: Rev K60E (revertant of 80-1) (human) (UniProt P18075)
BMP-7 E60K (human) = BMP-7 E60K (human) (UniProt P18075)

UniProt P22004, sequence (P22004 375-513): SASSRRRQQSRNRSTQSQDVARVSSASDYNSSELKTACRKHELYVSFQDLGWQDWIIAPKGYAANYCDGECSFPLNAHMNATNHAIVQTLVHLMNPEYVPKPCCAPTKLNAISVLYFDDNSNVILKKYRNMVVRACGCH

B1: Noggin (protein, UniProt Q13253 28-232, looked up)
chain: QHYLHIRPAPSDNLPLVDLIEHPDPIFDPKEKDLNETLLRSLLGGHYDPGFMATSPPEDRPGGGGGAAGGAEDLAELDQLLRQRPSGAMPSEIKGLEFSEGLAQGKKQRLSKKLRRKLQMWLWSQTFCPVLYAWNDLGSRFWPRYVKVGSCFSKRSCSVPEGMVCKPSKSVHLTVLRWRCQRRGGQRCGWIPIQYPIISECKCSC
- relative activity at 1000 ng/ml of noggin, reporter gene assay, conditioned media (BMP-7 Y78H (human)): 31%
- BMP-induced ID-1 gene expression by QPCR in hMSCs, BMP 50 ng/ml, Noggin 1.5 ug/ml, level against background (times background) (BMP-6 (human)): 2
- maximum percent inhibition by Noggin of BMP-induced luciferase activity, A549-BRE cells, BMP 150 ng/ml (BMP-6 (human)): 25%
- relative activity at 1000 ng/ml of noggin, reporter gene assay, conditioned media (BMP-6 (human)): 73%
- relative activity at 1000 ng/ml of noggin, reporter gene assay, conditioned media [1]: 63%
- relative activity at 1000 ng/ml of noggin, reporter gene assay, conditioned media (BMP-7 (human)): 15%
- relative activity in the presence of noggin at 100 ng/ml (N1), reporter gene assay [2]: 86%
- relative activity in the presence of noggin at 500 ng/ml (N2), reporter gene assay [2]: 51%
- relative activity in the presence of noggin at 1000 ng/ml (N3), reporter gene assay [2]: 32%
- relative activity at 1000 ng/ml of noggin, reporter gene assay, conditioned media (BMP-7 E60K (human)): 53%
